Measurements: patent US20080248034A1 (MORPHOTEK, published 2008)

T1: murine TEM-1 (in mouse 2H11 cells) (mouse, UniProt Q91V98 18-765)
T1 construct: Endogenous protein in lysate of mouse 2H11 cells, on a Western blot; also called murine endosialin
T1 sequence: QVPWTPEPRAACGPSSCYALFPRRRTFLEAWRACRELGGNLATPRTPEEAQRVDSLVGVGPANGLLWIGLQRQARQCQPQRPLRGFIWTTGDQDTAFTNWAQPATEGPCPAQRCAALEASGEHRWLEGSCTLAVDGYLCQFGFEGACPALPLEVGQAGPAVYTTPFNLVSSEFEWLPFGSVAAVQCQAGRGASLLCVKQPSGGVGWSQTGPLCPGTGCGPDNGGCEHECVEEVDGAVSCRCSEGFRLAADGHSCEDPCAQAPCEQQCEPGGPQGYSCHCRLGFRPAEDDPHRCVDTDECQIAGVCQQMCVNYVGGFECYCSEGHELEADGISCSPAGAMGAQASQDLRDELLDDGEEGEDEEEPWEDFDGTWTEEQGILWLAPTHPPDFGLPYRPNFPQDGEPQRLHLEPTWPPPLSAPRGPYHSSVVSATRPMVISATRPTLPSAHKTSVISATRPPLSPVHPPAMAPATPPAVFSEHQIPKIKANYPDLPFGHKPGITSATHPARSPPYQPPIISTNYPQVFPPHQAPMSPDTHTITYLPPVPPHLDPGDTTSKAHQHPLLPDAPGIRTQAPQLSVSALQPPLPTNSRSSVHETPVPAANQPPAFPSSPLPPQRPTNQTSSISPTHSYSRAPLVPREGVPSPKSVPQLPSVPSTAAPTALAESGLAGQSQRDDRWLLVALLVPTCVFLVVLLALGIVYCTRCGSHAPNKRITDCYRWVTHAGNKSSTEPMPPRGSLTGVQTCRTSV

B1: human mesothelin (other, UniProt Q13421 296-598, looked up)
chain: EVEKTACPSGKKAREIDESLIFYKKWELEACVDAALLATQMDRVNAIPFTYEQLDVLKHKLDELYPQGYPESVIQHLGYLFLKMSPEDIRKWNVTSLETLKALLEVNKGHEMSPQVATLIDRFVKGRGQLDKDTLDTLTAFYPGYLCSLSPEELSSVPPSSIWAVRPQDLDTCDPRQLDVLYPKARLAFQNMNGSEYFVKIQSFLGGAPTEDLKALSQQNVSMDLATFMKLRTDAVLPLTVAEVQKLLGPHVEGLKAEERHRPVRDWILRQRQDDLDTLGLGLQGGIPNGYLVLDLSMQEALS
B2: ovalbumin (OVA) (other, UniProt P01012 2-386, looked up)
chain: GSIGAASMEFCFDVFKELKVHHANENIFYCPIAIMSALAMVYLGAKDSTRTQINKVVRFDKLPGFGDSIEAQCGTSVNVHSSLRDILNQITKPNDVYSFSLASRLYAEERYPILPEYLQCVKELYRGGLEPINFQTAADQARELINSWVESQTNGIIRNVLQPSSVDSQTAMVLVNAIVFKGLWEKAFKDEDTQAMPFRVTEQESKPVQMMYQIGLFRVASMASEKMKILELPFASGTMSMLVLLPDEVSGLEQLESIINFEKLTEWTSSNVMEERKIKVYLPRMKMEEKYNLTSVLMAMGITDVFSSSANLSGISSAESLKISQAVHAAHAEINEAGREVVGSAEAGVDAASVSEEFRADHPFLFCIKHIATNAVLFFGRCVSP
B3: recombinant human fibronectin fragment 4 (Fn4) (other)
chain: VTDATETTITISWRTKTETITGFQVDAVPANGQTPIQRTIKPDVRSYTITGLQPGTDYKIYLYTLNDNARSSPVVIDASTAIDAPSNLRFLATTPNSLLVSWQPPRARITGYIIKYEKPGSPPREVVPRPRPGVTEATITGLEPGTEYTIYVIALKNNQKSEPLIGRKKTDELPQLVTLPHPNLHGPEILDVPSTVQKTPFVTHPGYDTGNGIQLPGTSGQQPSVGQQMIFEEHGFRRTTPPTTATPIRHRPRPYPPNVGEEIQIGHIPREDVDYHLYPHGPGLNPNASTGQEALSQTTISWAPFQDTSEYIISCHPVGTDEEPLQFRVPGTSTSATLTGLTRGATYNIIVEALKDQQRHKVREEVVTVGNSVNEGLNQPTDDSCFDPYTVSHYAVGDEWERMSESGFKLLCQCLGFGSGHFRCDSSRWCHDNGVNYKIGEKWDRQGENGQMMSCTCLGNGKGEFKCDPHEATCYDDGKTYHVGEQWQKEYLGAICSCTCFGGQRGWRCDNCRRPGGEPSPEGTTGQSYNQYSQRYHQRTNTNVNCPIECFMPLDVQADREDSRE
notes: Bought (R&D Systems)
B4: Fc-TEM1 (soluble recombinant endosialin: full-length TEM1 extracellular domain fused to monomeric murine IgG2b Fc) (Fc fusion, human)
chain: QDPWAAEPRAACGPSSCYALFPRRRTFLEAWRACRELGGDLATPRTPEEAQRVDSLVGAGPASRLLWIGLQRQARQCQLQRPLRGFTWTTGDQDTAFTNWAQPASGGPCPAQRCVALEASGEHRWLEGSCTLAVDGYLCQFGFEGACPALQDEAGQAGPAVYTTPFHLVSTEFEWLPFGSVAAVQCQAGRGASLLCVKQPEGGVGWSRAGPLCLGTGCSPDNGGCEHECVEEVDGHVSCRCTEGFRLAADGRSCEDPCAQAPCEQQCEPGGPQGYSCHCRLGFRPAEDDPHRCVDTDECQIAGVCQQMCVNYVGGFECYCSEGHELEADGISCSPAGAMGAQASQDLGDELLDDGEDEEDEDEAWKAFNGGWTEMPGILWMEPTQPPDFALAYRPSFPEDREPQIPYPEPTWPPPLSAPRVPYHSSVLSVTRPVVVSATHPTLPSAHQPPVIPATHPALSRDHQIPVIAANYPDLPSAYQPGILSVSHSAQPPAHQPPMISTKYPELFPAHQSPMFPDTRVAGTQTTTHLPGIPPNHAPLVTTLGAQLPPQAPDALVLRTQATQLPIIPTAQPSLTTTSRSPVSPAHQISVPAATQPAALPTLLPSQSPTNQTSPISPTHPHSKAPQIPREDGPSPKLALWLPSPAPTAAPTALGEAGLAEHSQRDDRWLDDDD
notes: extracellular domain; Monomeric secreted fusion protein made in CHO cells; also called TEM1-Fcγ; not shown: murine IgG2b Fcγ domain (hinge through CH3), modified: the four cysteine residues responsible for inter-heavy chain disu
B5: recombinant human fibronectin fragment 2 (Fn2) (other)
chain: SSSGPVEVFITETPSQPNSHPIQWNAPQPSHISKYILRWRPKNSVGRWKEATIPGHLNSYTIKGLKPGVVYEGQLISIQQYGHQEVTRFDFTTTSTSTPVTSNTVTGETTPFSPLVATSESVTEITASSFVVSWVSASDTVSGFRVEYELSEEGDEPQYLDLPSTATSVNIPDLLPGRKYIVNVYQISEDGEQSLILSTSQTTAPDAPPDPTVDQVDDTSIVVRWSRPQAPITGYRIVYSPSVEGSSTELNLPETANSVTLSDLQPGVQYNITIYAVEENQESTPVVIQQETTGTPRSDTVPSPRDLQFVEVTDVKVTIMWTPPESAVTGYRVDVIPVNLPGEHGQRLPISRNTFAEVTGLSPGVTYYFKVFAVSHGRESKPLTAQQTTKLDAPTNLQFVNETDSTVLVRWTPPRAQITGYRLTVGLTRRGQPRQYNVGPSVSKYPLRNLQPASEYTVSLVAIKGNQESPKATGVFTTLQPGSSIPPYNTEVTETTIVITWTPAPRIGFKLGVRPSQGGEAPREVTSDSGSIVVSGLTPGVEYVYTIQVLRDGQERDAPIVNKVVTPLSPPTNLHLEANPDTGVLTVSWERSTTPDITGYRITTTPTNGQQGNSLEEVVHADQSSCTFDNLSPGLEYNVSVYTVKDDKESVPISDTIIP
notes: Bought (R&D Systems)
B6: M4.1 (humanized antibody to human endosialin) (antibody, human IgG1, kappa)
heavy: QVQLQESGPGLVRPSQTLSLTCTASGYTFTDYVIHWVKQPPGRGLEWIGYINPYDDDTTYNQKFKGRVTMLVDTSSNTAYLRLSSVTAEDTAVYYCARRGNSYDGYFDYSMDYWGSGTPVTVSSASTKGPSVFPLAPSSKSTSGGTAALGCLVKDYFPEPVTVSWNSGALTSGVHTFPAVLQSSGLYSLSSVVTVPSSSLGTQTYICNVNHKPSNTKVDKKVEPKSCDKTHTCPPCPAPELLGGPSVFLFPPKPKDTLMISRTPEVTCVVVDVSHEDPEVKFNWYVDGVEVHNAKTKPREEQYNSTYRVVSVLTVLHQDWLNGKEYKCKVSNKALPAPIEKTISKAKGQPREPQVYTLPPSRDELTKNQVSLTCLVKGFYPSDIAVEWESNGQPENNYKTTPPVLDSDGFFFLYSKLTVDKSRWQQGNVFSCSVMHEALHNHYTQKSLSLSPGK
light: DIQMTQSPSSLSASVGDRVTITCRASQNVGTAVAWLQQTPGKAPKLLIYSASNRYTGVPSRFSGSGSGTDYTFTISSLQPEDIATYYCQQYTNYPMYTFGQGTKVQIKRTVAAPSVFIFPPSDEQLKSGTASVVCLLNNFYPREAKVQWKVDNALQSGNSQESVTEQDSKDSTYSLSSTLTLSKADYEKHKVYACEVTHQGLSSPVTKSFNRGEC
notes: also called antibody M4.1

Experiments:
[1] = biological target: B4; assay: antigen-specific ELISA, coated at 0.2 ug/ml (FIG. 4B)
[2] = biological target: B4; assay: antigen-specific ELISA, coated at 2 ug/ml (FIG. 4B)
[3] = biological target: B4; assay: ELISA on coated FN fragments (FIG. 7A)
[4] = biological target: T2, 120 kDa fibronectin fragment containing the cell attachment domain (UniProt P02751-1 722-1635, limits assumed); assay: ELISA on coated FN fragments (FIG. 7A)
T2 construct: domain: 120 kDa fragment containing the cell attachment domain; Bought fragment; also called the 120 kDa fragment; 120 kDa cell attachment FN-fragment

[5] = biological target: T1, murine TEM-1 (in mouse 2H11 cells); assay: Western blot of cell lysates (FIG. 15)

T2 sequence (P02751 other isoform, or with tags, fused parts or gaps limits assumed): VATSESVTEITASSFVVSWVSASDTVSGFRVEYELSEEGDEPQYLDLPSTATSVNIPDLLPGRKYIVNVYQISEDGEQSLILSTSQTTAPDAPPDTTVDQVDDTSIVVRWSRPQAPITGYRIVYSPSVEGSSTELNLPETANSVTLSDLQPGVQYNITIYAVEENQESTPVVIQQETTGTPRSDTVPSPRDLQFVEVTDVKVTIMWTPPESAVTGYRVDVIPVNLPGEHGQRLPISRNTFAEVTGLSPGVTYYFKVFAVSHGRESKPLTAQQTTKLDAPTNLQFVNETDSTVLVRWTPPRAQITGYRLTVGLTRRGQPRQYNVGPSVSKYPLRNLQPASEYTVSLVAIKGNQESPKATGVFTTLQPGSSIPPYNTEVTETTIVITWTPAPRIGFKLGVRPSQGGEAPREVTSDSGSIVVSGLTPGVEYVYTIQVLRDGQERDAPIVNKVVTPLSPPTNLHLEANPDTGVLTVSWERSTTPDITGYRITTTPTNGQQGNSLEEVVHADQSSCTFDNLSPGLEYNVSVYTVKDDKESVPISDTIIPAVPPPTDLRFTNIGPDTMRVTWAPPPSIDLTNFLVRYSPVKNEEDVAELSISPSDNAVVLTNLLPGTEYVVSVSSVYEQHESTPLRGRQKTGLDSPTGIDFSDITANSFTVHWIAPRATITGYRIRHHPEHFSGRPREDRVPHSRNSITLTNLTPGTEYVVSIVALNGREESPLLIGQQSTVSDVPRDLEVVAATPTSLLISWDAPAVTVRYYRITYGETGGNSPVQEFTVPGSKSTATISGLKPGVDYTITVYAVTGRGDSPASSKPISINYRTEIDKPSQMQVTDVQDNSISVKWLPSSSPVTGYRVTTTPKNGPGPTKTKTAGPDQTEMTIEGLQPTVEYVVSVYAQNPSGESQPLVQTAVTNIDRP

Binder: B1
binding result [1]: no binding (tested: 5, 10, 50 ug/ml)

Binder: B2
binding result [2]: no binding (tested: 5, 10, 50 ug/ml)

Binder: B3
binding result [3]: no binding (tested: 1.25 ug/ml)

Binder: B4
binding result [4]: no binding (tested: 1.25 ug/ml)

Binder: B5
binding result [3]: no binding (tested: 1.25 ug/ml)

Binder: B6
binding result [5]: no binding (tested: 3.3 ug/mL)
